Source: patent publication US20070249813A1

How the values were obtained:
[1] = biological target: recombinant human TNFα (human) (UniProt P01375); test: cell-based or functional assay
[2] = biological target: biotinylated recombinant human TNFα (human) (UniProt P01375); test: SPR (BIAcore), [Ab] 3 nM over immobilized biotinylated rhTNFα
[3] = biological target: biotinylated recombinant human TNFα (human) (UniProt P01375); test: SPR (BIAcore), [Ab] 6 nM over immobilized biotinylated rhTNFα
[4] = biological target: biotinylated recombinant human TNFα (human) (UniProt P01375); test: SPR (BIAcore), [Ab] 13 nM over immobilized biotinylated rhTNFα
[5] = biological target: biotinylated recombinant human TNFα (human) (UniProt P01375); test: SPR (BIAcore), [Ab] 25 nM over immobilized biotinylated rhTNFα
[6] = biological target: biotinylated recombinant human TNFα (human) (UniProt P01375); test: SPR (BIAcore), [Ab] 50 nM over immobilized biotinylated rhTNFα
[7] = biological target: biotinylated recombinant human TNFα (human) (UniProt P01375); test: SPR (BIAcore), [Ab] 100 nM over immobilized biotinylated rhTNFα
[8] = biological target: biotinylated recombinant human TNFα (human) (UniProt P01375); test: SPR (BIAcore), [Ab] 200 nM over immobilized biotinylated rhTNFα
[9] = biological target: biotinylated recombinant human TNFα (human) (UniProt P01375); test: SPR (BIAcore), [Ab] 400 nM over immobilized biotinylated rhTNFα
[10] = biological target: biotinylated recombinant human TNFα (human) (UniProt P01375); test: summary table of binding properties for hTNFα (assay not named there)

Chain of biotinylated recombinant human TNFα (human) (P01375 77-233 limits assumed): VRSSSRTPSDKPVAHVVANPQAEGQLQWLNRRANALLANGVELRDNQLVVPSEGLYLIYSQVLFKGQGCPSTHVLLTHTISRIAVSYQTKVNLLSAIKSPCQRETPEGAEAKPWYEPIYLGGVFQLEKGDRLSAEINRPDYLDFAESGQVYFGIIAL
Chain of recombinant human TNFα (human) (P01375 77-233 limits assumed): as above

For MAK 195 F(ab′)2 fragment (antibody), the IC50, neutralization of TNFα-induced L929 cytotoxicity [1] was 62 pM, the Ab, bound, RUs [2] was 231 RU and the Ab, bound, RUs [3] was 433 RU. It also gave an Ab, bound, RUs [4] of 708 RU, an Ab, bound, RUs [5] of 957 RU and an Ab, bound, RUs [6] of 1110 RU. It also gave an Ab, bound, RUs [7] of 1140 RU, an Ab, bound, RUs [8] of 1080 RU and an Ab, bound, RUs [9] of 881 RU. For the same substance, the Kd [10] was 0.46 nM and the Stoichiometry [10] was 1.4.
